Experimental findings from publication PMC8844045, “Dynamic FMR1 granule phase switch instructed by m6A modification contributes to maternal RNA decay” are described below.

Data set [1] deals with T1, FMR1 (MBP fusion) (UniProt Q9NFU0 1-684). Briefly: SPR; EMSA: 10 mM HEPES pH 7.4, 50 mM KCl, 1 mM DTT (printed DDT), 1 mM EDTA, 0.05% Triton X-100, 5% glycerol, 10 ng/ul salmon DNA, 25 C, then 0.2% glutaraldehyde; SPR: 20 mM HEPES pH 7.4, 150 mM KCl, 1.5 mM MgCl2, 0.1% NP40, 25 C; pull-down: 10 mM Tris-HCl pH 7.5, 150 mM KCl, 1.5 mM MgCl2, 0.1% NP-40, 0.5 mM DTT, 4 C. As to conditions: protein: recombinant; label: biotin-16-UTP. On the technique in general: In SPR one partner is held on a chip, and binding of the other changes the refractive index at the surface.

Data set [2] has as its target T1, FMR1 (MBP fusion). Put plainly: EMSA; EMSA: 10 mM HEPES pH 7.4, 50 mM KCl, 1 mM DTT (printed DDT), 1 mM EDTA, 0.05% Triton X-100, 5% glycerol, 10 ng/ul salmon DNA, 25 C, then 0.2% glutaraldehyde; SPR: 20 mM HEPES pH 7.4, 150 mM KCl, 1.5 mM MgCl2, 0.1% NP40, 25 C; pull-down: 10 mM Tris-HCl pH 7.5, 150 mM KCl, 1.5 mM MgCl2, 0.1% NP-40, 0.5 mM DTT, 4 C. Conditions: protein: recombinant; label: biotin-16-UTP.

One may read the Kd as the constant that tells how readily two partners part at equilibrium.

T1 sequence (Q9NFU0 whole entry, the tested form may be a part): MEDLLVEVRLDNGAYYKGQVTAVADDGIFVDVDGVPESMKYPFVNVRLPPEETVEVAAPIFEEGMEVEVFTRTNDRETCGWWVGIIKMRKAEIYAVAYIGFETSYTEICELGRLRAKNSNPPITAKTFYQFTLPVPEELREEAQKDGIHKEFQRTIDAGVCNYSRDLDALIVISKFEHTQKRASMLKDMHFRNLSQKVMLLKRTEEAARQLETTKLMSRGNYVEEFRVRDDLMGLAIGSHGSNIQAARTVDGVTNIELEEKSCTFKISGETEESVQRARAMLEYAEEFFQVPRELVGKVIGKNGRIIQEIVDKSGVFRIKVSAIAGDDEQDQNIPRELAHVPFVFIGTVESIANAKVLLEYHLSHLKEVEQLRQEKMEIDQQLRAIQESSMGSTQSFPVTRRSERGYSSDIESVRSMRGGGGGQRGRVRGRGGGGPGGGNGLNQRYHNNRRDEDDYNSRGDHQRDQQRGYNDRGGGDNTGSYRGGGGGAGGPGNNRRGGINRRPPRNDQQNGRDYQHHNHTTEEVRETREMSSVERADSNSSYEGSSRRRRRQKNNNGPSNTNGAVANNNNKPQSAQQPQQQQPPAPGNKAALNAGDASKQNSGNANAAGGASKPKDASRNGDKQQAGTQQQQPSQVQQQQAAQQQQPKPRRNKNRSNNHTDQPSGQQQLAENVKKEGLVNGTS

B1: mixed GGACU/AGACU/GAACU probe, m6A (ssRNA)
RNA: GGGGACUAGACUGAACUGGGACUAGACUGAACUGGGACUAGACUGAACUGUAC
modifications: all A = m6A (m6ATP)
Consider B1, for which the dissociation constant Kd with FMR1 (MBP fusion) [1] came to 80.7 nM.

B2: mixed GGACU/AGACU/GAACU probe, unmodified (ssRNA)
RNA: GGGGACUAGACUGAACUGGGACUAGACUGAACUGGGACUAGACUGAACUGUAC
Consider B2, for which the dissociation constant Kd in the data set with FMR1 (MBP fusion) [1] came to 3600 nM.

B3: AGACU (9x), m6A (ssRNA)
RNA: GGGAGACUAGACUAGACUGAGACUAGACUAGACUGAGACUAGACUAGACUGUAC
modifications: all A = m6A (m6ATP)
B3: the binding result in the data set with FMR1 (MBP fusion) [2] is reported as “binds”.
